The values below come from US20140162285A1, “Methods of Modulating Vesicular Trafficking” (The General Hospital Corporation, priority 2009, published 2014).

As usually defined, the koff is the first-order rate constant of dissociation. The term kon denotes a measure of how fast the partners come together.

Entries after “also recorded” stand apart in the source; their conditions may differ. Ends that are not written are not given here. * marks the point of attachment. Biotin = O=C1N[C@H]2[C@H](CS[C@H]2CCCCC(=O)*)N1

The target in one assay is T1, GST-ARNO(wt) (Homo sapiens, UniProt Q99418).
T1 construct: i) 1-400aa, full length ARNO(wt); made in house; host or cells: E. coli BL21(DE3)
T1 sequence (Q99418 1-400): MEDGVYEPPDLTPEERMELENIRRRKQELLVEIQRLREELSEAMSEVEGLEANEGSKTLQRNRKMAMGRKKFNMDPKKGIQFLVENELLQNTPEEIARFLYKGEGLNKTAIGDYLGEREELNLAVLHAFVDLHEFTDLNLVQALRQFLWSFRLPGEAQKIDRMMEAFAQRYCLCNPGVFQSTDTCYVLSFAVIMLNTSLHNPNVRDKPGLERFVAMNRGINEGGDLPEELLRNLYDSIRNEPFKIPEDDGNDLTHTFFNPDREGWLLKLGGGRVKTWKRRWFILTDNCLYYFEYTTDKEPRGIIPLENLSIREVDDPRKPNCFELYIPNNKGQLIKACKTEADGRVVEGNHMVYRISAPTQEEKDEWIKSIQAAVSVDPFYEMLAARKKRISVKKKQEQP
In words: a2N-derived peptide pull-down assay with GST-ARNO(wt). The class given is binding. More on the design: key to interaction with ARNO (asterisk mark in Table 1): The interacting peptides are indicated in bold with an asterisk (*). The following applies: for interaction of a2N-derived peptide with GST-ARNO(wt) in pull-down: Western blot anti-GST, GST-only as control; for interaction with ARNO (asterisk mark in Table 1): biotin-tagged peptides on streptavidin beads. The procedure:
FIG. 2A is an image of a Western blot showing the results of an a2N-derived peptide pull-down assay. The indicated a2N-derived peptides were immobilized on streptavidin-beads and incubated with purified recombinant GST-ARNO(wt). Interacting complexes were eluted and analyzed by Western blotting using monoclonal anti-GST antibodies.
FIG. 2B is an image of a Western blot showing the results of a pull-down assay with selected a2N-derived interacting peptides incubated with either GST (negative control) or GST-ARNO(wt). The first two lanes show the patterns obtained when either GST-only (lane 1) or GST-ARNO(wt) (lane 2) were loaded onto the gel.
Peptides were synthesized, purified by HPLC and analyzed by mass spectrometry in the MGH Peptide/Protein Core Facility. All a2N-derived peptides were synthesized with a biotin-tag on the N-terminus for immobilization on streptavidin-agarose beads and with an additional C-terminal cysteine residue for immobilization on beads using sulfhydryl-specific crosslinkers. A peptide corresponding to the PB-domain of ARNO was synthesized containing either a non-phosphorylated or a phosphorylated Ser392 residue. Peptide stock solutions were prepared in DMSO at 5 mM concentration and stored at −20° C. […]

The target of the next assay is T2, 6His-a2N(wt) (Mus musculus, UniProt P15920).
T2 construct: amino acid residues 1-402 of mouse V-ATPase a2-subunit (a2N1-402); made in house; host or cells: cell-free in vitro translation
T2 sequence (P15920 1-402): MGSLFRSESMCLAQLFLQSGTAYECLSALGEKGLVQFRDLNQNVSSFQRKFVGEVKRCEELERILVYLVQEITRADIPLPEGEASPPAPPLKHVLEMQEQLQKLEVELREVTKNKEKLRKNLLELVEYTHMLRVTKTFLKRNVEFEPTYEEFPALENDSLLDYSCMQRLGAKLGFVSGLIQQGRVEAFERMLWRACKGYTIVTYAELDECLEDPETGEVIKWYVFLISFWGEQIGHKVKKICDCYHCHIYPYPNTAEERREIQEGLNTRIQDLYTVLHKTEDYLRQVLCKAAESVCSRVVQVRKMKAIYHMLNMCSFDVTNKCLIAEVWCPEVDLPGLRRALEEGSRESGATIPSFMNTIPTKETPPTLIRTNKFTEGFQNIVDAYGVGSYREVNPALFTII
In words: ARNO-derived peptide pull-down with in vitro translated 6His-a2N(wt). Conditions: 7 nmol biotin-tagged peptide on streptavidin-agarose beads. The format is binding. The procedure: FIGS. 4B-C are images of Western blots showing (4B) the results of peptide pull-down assays for interaction of a2N with Sec7-PH-linker of ARNO and (4C) phosphorylation-dependent interaction of a2N with ARNO-derived peptide corresponding to the PB-domain of ARNO. Corresponding ARNO-derived peptides were immobilized on streptavidin-beads and incubated with in vitro translated recombinant a2N. Interacting complexes were eluted and analyzed by Western blotting using anti-a2N antibodies.
ARNO-derived peptides, equal amounts (7 nmol) of biotin-tagged synthetic peptides were also immobilized on streptavidin-agarose beads followed by incubation with 10 μl of in vitro translated 6His-a2N(wt) recombinant protein. Pull-down experiments and SDS-PAGE analysis were performed as described above and interacting 6His-a2N/ARNO-derived-peptide complexes were analyzed by Western blotting using polyclonal anti-a2N antibody. All experiments were repeated at least three times with similar results.

In the next assay the target is T3, GST-only (UniProt P08515 1-218 = GST).
T3 construct: Control bait/prey in pull-down assays; also called GST (negative control)
T3 sequence (P08515 whole entry): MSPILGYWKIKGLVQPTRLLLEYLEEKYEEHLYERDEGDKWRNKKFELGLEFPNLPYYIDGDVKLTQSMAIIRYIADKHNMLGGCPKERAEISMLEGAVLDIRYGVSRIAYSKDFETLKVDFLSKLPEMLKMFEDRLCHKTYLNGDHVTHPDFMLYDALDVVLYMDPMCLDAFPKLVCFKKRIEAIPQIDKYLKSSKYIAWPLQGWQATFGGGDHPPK
In words: peptide pull-down: biotinylated peptide on streptavidin-agarose beads, GST-only in solution, Western blot with anti-GST antibody. On the procedure:
FIGS. 5A-C are a set of three images of Western blots showing the identification of interaction motif of a2N that is involved in specific binding with the Sec7 domain of ARNO. 5A, The catalytic Sec7 domain of ARNO interacts with two a2N-derived peptides, a2N-01 and a2N-03, in pull-down experiments. The peptide pull-down assay was performed with six a2N-derived interaction peptides immobilized on streptavidin-beads and incubated with purified recombinant GST-only or GST-Sec7 domain. Interacting complexes were eluted and analyzed by Western blotting using monoclonal anti-GST antibodies as described below. The loading controls for GST-only (lane 1) or GST-Sec7 (lane 2) are shown. 5B, 5C: Peptide a2N-01 specifically interacts with Sec7 but not PH-domain (5B) or PB-domain (5C) of ARNO. The peptide pull-down assay was performed with peptides a2N-01 and a2N-03 immobilized on streptavidin-beads and incubated with purified recombinant GST-PH domain (5B) or GST-PB domain (5C). Interacting complexes were eluted and analyzed by Western blotting using monoclonal anti-GST antibodies. The loading control of GST-PH-domain (5B) or GST-PB-domain (5C) is shown on the left.
These a2N-derived peptides were immobilized by an N-terminal biotin-tag, which ensured the same efficiency and equivalent binding to streptavidin-agarose beads. Simultaneous pull-down experiments with immobilized peptides were performed using highly purified recombinant GST-only or GST-Sec7-6His as described below. […] To remove unbound peptides, beads were collected by centrifugation and washed in 500 μl ice-cold binding buffer. Next, equal amounts (20 pmoles) of highly purified recombinant GST-only or GST-Sec7-6His were added to the beads containing immobilized peptides and incubated for 2 hours at 4° C. in 500 μl of binding buffer. After washing beads four times in ice-cold binding buffer, the interacting complexes were eluted by boiling in SDS-PAGE sample buffer for 10 min at 95° C., resolved by SDS-PAGE and analyzed by Western blotting using monoclonal anti-GST antibody.
A general note: A western blot detects proteins with antibodies after separation by electrophoresis.

Assay [1] deals with T4, purified 6His-a2N (recombinant a2N protein, a2N1-402, expressed in E. coli and refolded) (mouse, UniProt P15920 1-402).
T4 construct: Immobilised by amine coupling on a CM4 chip for SPR; also called a2N(wt); a2N-His6(wt)
T4 sequence: T2 sequence (P15920 1-402)
In words: SPR (BIAcore T100), a2N immobilised on CM4 chip, ARNO(wt) as analyte, bivalent analyte fit. The procedure:
All reagents, including buffers, sensor chips and the amine coupling kit, were obtained from GE Healthcare. For kinetic analysis of the binding of ARNO(wt) with a2N(wt), purified 6His-a2N (5 μg/ml) in 10 mM sodium acetate (pH 4.0) was immobilized at 80 response units (RU) on a CM4 sensor chip using an amine coupling kit according to the manufacturer's instructions. The same kit was used to perform blank immobilization to create a reference surface on the same chip. Samples of purified GST-ARNO(wt) at concentrations ranging from 0.25-4 μM were injected for 6 min over active and reference surfaces at a flow rate of 30 μl/min in NBS-EP, 1 mM DTT running buffer (10 mM Hepes, pH 7.4, 150 mM NaCl, 3 mM EDTA, 0.05% Surfactant P20, 1 mM DTT). For kinetic analysis of the binding of the ARNO Sec7-domain with a2N-01 peptide, neutravidin (10 μg/ml) in 10 mM sodium acetate (pH 5.0) was immobilized at about 1200 RU on two surfaces of a CM4 sensor chip using an amine coupling kit. Following that, biotinylated a2N-01 peptide (50 RU) and amine-PEG₃-biotin (25 RU) were irreversibly captured by neutravidin to create active and a reference surfaces, respectively. Purified Sec7-6His recombinant protein was injected for 3.5 min over active and reference surfaces at concentrations ranging from 0.05-1 μM and a flow rate of 100 μl/min in NBS-EP, 1 mM DTT running buffer. Dissociation of the complexes was monitored for 10 min, and then the regeneration of the sensor surfaces was performed using 0.05% SDS with 1-min injection in the running buffer at a 20 μl/min flow rate. BIAcore™ T100 Evaluation software was used to calculate the association and dissociation rate constants (kₒₙ and koff) with a 1:1 fitting model. The dissociation constant (KD) was determined from the kₒₙ/koff values. To estimate affinity of interaction the corresponding free energy of binding ΔGbind=RTlnKD was calculated as previously described (Marles et al., Mol Cell 14 (2004) 813-823).
Specific concentration-dependent responses were obtained for both interactions. […]
(Surface plasmon resonance follows binding to a sensor surface in real time, without labels.)

Take “Bio-NMCSFDVTNKCLIAEVWCP-Cys (NMCSFDVTNKCLIAEVWCPC) [a2N-18, AA 313-331 of a2N]”: in the assay with GST-ARNO(wt), the “interaction of a2N-derived peptide with GST-ARNO(wt) in pull-down” value (“interaction of a2N-derived peptide” below) is “specific interaction; also recorded: capable of interaction with ARNO” and the “interaction with ARNO (asterisk mark in Table 1)” value (“interaction with ARNO” below) is on record as “Bio-NMCSFDVTNKCLIAEVWCP-Cys *”. Take “ARNO375-400: biotinylated non-phosphorylated peptide covering the PB-domain of ARNO plus four PH/PB-linker amino acids, SEQ ID NO:32 (VSVDPFYEMLAARKKRISVKKKQEQP; also: biotinylated, site not given here)”: in the assay with 6His-a2N(wt), the “interaction of ARNO-derived peptide with a2N” value is “direct interaction”. In the case of “Bio-KHVLEMQEQLQKLEVELREVTKNKEKLRKNLLELVE-Cys (KHVLEMQEQLQKLEVELREVTKNKEKLRKNLLELVEC) [a2N-06, AA 92-127, predicted CC-domain of a2N]”, the “interaction of a2N-derived peptide” value with GST-ARNO(wt) is reported as “did not bind”. Regarding “Bio-ETGEVIKWYVFLISFW-Cys (ETGEVIKWYVFLISFWC) [a2N-12, AA 215-230 of a2N]”, in the assay with GST-ARNO(wt), the “interaction of a2N-derived peptide” value was “specific interaction; also recorded: capable of interaction with ARNO” and the “interaction with ARNO” value is “Bio-ETGEVIKWYVFLISFW-Cys *”. Take “Bio-GYTIVTYAELDECLEDP-Cys (GYTIVTYAELDECLEDPC) [a2N-11, AA 198-214 of a2N]”: in the assay with GST-ARNO(wt), the “interaction of a2N-derived peptide” value is on record as “specific interaction; also recorded: capable of interaction with ARNO” and the “interaction with ARNO” value is “Bio-GYTIVTYAELDECLEDP-Cys *”. For “Bio-YGVGSYREVNPALFTII-Cys (YGVGSYREVNPALFTIIC) [a2N-22, AA 386-402 of a2N]”, in the assay with GST-ARNO(wt), the “interaction of a2N-derived peptide” value is “specific interaction; also recorded: capable of interaction with ARNO” and the “interaction with ARNO” value is listed as “Bio-YGVGSYREVNPALFTII-Cys *”.

B1: a2N-22 (peptide)
peptide: Biotin-YGVGSYREVNPALFTIIC
Consider B1, for which the binding result in the assay with GST-only was “no binding”.

B2: a2N-03 (peptide)
peptide: Biotin-VQFRDLNQNVSSFQRC
notes: also called a2N35-49
For the molecule B2, the binding result with GST-only is “no binding”.

B3: a2N-11 (peptide)
peptide: Biotin-GYTIVTYAELDECLEDPC
modifications: cysteine pairing not given here
notes: also called a2N198-214
Consider B3, for which the binding result in the assay with GST-only is recorded as “no binding”.

B4: a2N-12 (peptide)
peptide: Biotin-ETGEVIKWYVFLISFWC
notes: also called a2N215-230
B4: the binding result in the assay with GST-only is on record as “no binding”.

B5: GST-ARNO(wt) (other, human, UniProt Q99418 1-400, looked up)
chain: T1 sequence (Q99418 1-400)
notes: range 1-400; Double-tagged construct (N-terminal GST, C-terminal 6xHis); also called full length ARNO(wt); wild-type ARNO; not shown: N-terminal GST-tag from the pGEX6P-1 vector; C-terminal 6xHis-tag
Turning to B5, in assay [1], the Kd came out at 313 nM, the off-rate (koff) was 0.0015 s⁻¹ and the on-rate (kon) was 4770 M⁻¹ s⁻¹.

B6: a2N-18 (peptide)
peptide: Biotin-NMCSFDVTNKCLIAEVWCPC
modifications: cysteine pairing not given here
notes: also called a2N313-331
On to B6, for which the binding result in the assay with GST-only is recorded as “no binding”.
